Numbering of substitutions follows the chain as printed.
T1: human 5T4-His protein (human, UniProt Q13641 32-355)
T1 construct: also called recombinant 5T4 protein (human 5T4-his tag); human 5T4 protein; not shown: His tag
T1 sequence (looked up): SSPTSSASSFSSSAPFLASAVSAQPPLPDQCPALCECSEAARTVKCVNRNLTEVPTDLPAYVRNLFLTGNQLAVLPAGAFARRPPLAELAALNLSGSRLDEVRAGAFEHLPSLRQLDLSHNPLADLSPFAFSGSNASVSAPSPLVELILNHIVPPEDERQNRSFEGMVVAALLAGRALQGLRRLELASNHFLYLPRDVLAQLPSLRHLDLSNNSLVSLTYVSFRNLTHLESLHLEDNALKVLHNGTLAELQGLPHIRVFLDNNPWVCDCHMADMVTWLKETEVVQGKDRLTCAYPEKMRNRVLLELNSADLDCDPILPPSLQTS

B1: 393E9_hVH2_hVL2 (antibody, V domains shown)
VH: EVQLVESGGGLIQPGGSLRLSCAASGFTFTDYYMSWVRQPPGKGLEWVGFIRNKGNGYTTENSASVKGRFTISRDNSKSTLYLQMNSLRAEDTAVYYCARYRGNPHYAMDYWGQGTLVTVSS
VL: EIVLTQSPATLSVSPGERATLSCRASESVEFYGTSFLQWYQQKPGQAPRLLIYGASNVESGIPARFSGSGSGTEFTLTISSLQSEDIAVYFCQQSRKVPSTFGGGTKVEIK
notes: humanized
B2: 393E9_hVH1_hVL4 (antibody, V domains shown)
VH: B1 VH with I12V, P40A
VL: DIVLTQSPLSLPVTPGEPASISCRASESVEFYGTSFLQWYLQKPGQSPQLLIYGASNVESGVPDRFSGSGSGTDFTLKISRVEAEDIGVYFCQQSRKVPSTFGGGTKVEIK
notes: humanized
B3: 393E9_hVH2_hVL5 (antibody, V domains shown)
VH: B1 VH
VL: B1 VL with A9G, V13L, A64D, E74D, S81R, Q83E, S84P
notes: humanized
B4: 393E9_hVH3_hVL5 (antibody, V domains shown)
VH: B1 VH with E1Q, L11V, I12V, P40A
VL: B1 VL with A9G, V13L, A64D, E74D, S81R, Q83E, S84P
notes: humanized
B5: 393E9_hVH5_hVL4 (antibody, V domains shown)
VH: B1 VH with I12V, G16R, A23T, P40A, T80I, R89K, A90T
VL: B2 VL
notes: humanized
B6: 393E9_hVH3_hVL4 (antibody, V domains shown)
VH: B1 VH with E1Q, L11V, I12V, P40A
VL: B2 VL
notes: humanized
B7: 393E9_hVH5_hVL3 (antibody, V domains shown)
VH: B1 VH with I12V, G16R, A23T, P40A, T80I, R89K, A90T
VL: DIQLTQSPSSLSASVGDRVTITCRASESVEFYGTSFLQWYQQKPGKAPKLLIYGASNVESGVPSRFSGSGSGTDFTLTISSLQPEDIATYFCQQSRKVPSTFGGGTKVEIK
notes: humanized; also called Hu393E9-53
B8: 393E9_hVH4_hVL2 (antibody, V domains shown)
VH: B1 VH with I12V, P40A, T80S, R89K, A90T
VL: B1 VL
notes: humanized
B9: 393E9_hVH6_hVL3 (antibody, V domains shown)
VH: B1 VH with I12V, P40A, S77A, T80S
VL: B7 VL
notes: humanized
B10: 393E9_hVH6_hVL2 (antibody, V domains shown)
VH: B1 VH with I12V, P40A, S77A, T80S
VL: B1 VL
notes: humanized; also called Hu393E9-62
B11: 393E9_hVH6_hVL5 (antibody, V domains shown)
VH: B1 VH with I12V, P40A, S77A, T80S
VL: B1 VL with A9G, V13L, A64D, E74D, S81R, Q83E, S84P
notes: humanized
B12: 393E9_hVH5_hVL5 (antibody, V domains shown)
VH: B1 VH with I12V, G16R, A23T, P40A, T80I, R89K, A90T
VL: B1 VL with A9G, V13L, A64D, E74D, S81R, Q83E, S84P
notes: humanized
B13: 393E9_hVH2_hVL3 (antibody, V domains shown)
VH: B1 VH
VL: B7 VL
notes: humanized
B14: 393E9_hVH3_hVL3 (antibody, V domains shown)
VH: B1 VH with E1Q, L11V, I12V, P40A
VL: B7 VL
notes: humanized
B15: 393E9_hVH4_hVL5 (antibody, V domains shown)
VH: B1 VH with I12V, P40A, T80S, R89K, A90T
VL: B1 VL with A9G, V13L, A64D, E74D, S81R, Q83E, S84P
notes: humanized; also called Hu393E9-45
B16: 393E9_hVH2_hVL4 (antibody, V domains shown)
VH: B1 VH
VL: B2 VL
notes: humanized
B17: 393E9_hVH4_hVL3 (antibody, V domains shown)
VH: B1 VH with I12V, P40A, T80S, R89K, A90T
VL: B7 VL
notes: humanized
B18: Hu286B4-1 (antibody, V domains shown)
VH: EVQLQESGPGLVKPSDTLSLTCAVSGYSISNNYYWNWIRQPPGKGLEWIGYITYDGSNNYNPSLKNRVTMSRDTSKNQFSLKLSSVTAVDTAVYYCARGGGQLRFDYWGQGTTVTVSS
VL: DIQMTQSPSSLSASVGDRVTITCKASQSVSNEVTWYQQKPGKAPKLLIYYASNRYTGVPDRFSGSGSGTDFTFTISSLQPEDIATYYCQQDYSSPWTFGGGTKVEIK
notes: humanized
B19: Hu286B4-6 (antibody, V domains shown)
VH: B18 VH with V68I
VL: B18 VL
notes: humanized
B20: Hu286B4-9 (antibody, V domains shown)
VH: B18 VH with V68I
VL: B18 VL with A43S, L46M, S67Y, Y87F
notes: humanized
B21: Hu286B4-2 (antibody, V domains shown)
VH: B18 VH
VL: B18 VL with L46M
notes: humanized
B22: Hu286B4-20 (antibody, V domains shown)
VH: B18 VH with S30T, I49M, V68I, M70V, A97T
VL: B18 VL with D1S, Q3V, A43S, L46M, S67Y, Y87F
notes: humanized
B23: Hu286B4-14 (antibody, V domains shown)
VH: B18 VH with I49M, V68I, M70V
VL: B18 VL with A43S, L46M, S67Y, Y87F
notes: humanized
B24: Hu286B4-16 (antibody, V domains shown)
VH: B18 VH with S30T, I49M, V68I, M70V, A97T
VL: B18 VL
notes: humanized
B25: Hu286B4-4 (antibody, V domains shown)
VH: B18 VH
VL: B18 VL with A43S, L46M, S67Y, Y87F
notes: humanized
B26: Hu286B4-12 (antibody, V domains shown)
VH: B18 VH with I49M, V68I, M70V
VL: B18 VL with L46M
notes: humanized
B27: Hu286B4-7 (antibody, V domains shown)
VH: B18 VH with V68I
VL: B18 VL with L46M
notes: humanized
B28: Hu286B4-19 (antibody, V domains shown)
VH: B18 VH with S30T, I49M, V68I, M70V, A97T
VL: B18 VL with A43S, L46M, S67Y, Y87F
notes: humanized
B29: Hu286B4-11 (antibody, V domains shown)
VH: B18 VH with I49M, V68I, M70V
VL: B18 VL
notes: humanized
B30: Hu286B4-17 (antibody, V domains shown)
VH: B18 VH with S30T, I49M, V68I, M70V, A97T
VL: B18 VL with L46M
notes: humanized

The binders below were run against T1, human 5T4-His protein (assay: ELISA, coated 5T4-His).
Protocol: To evaluate the binding activity of 393E9 humanized antibodies to human 5T4, the 393E9 chimeric antibody (393E9-C) along with 393E9 humanized mAbs were subjected to ELISA test.
Briefly, microtiter plates were coated with human 5T4-His protein at 1 μg/ml in PBS, 100 μl/well at 4° C. overnight, then blocked with 150 μl/well of 1% BSA. 4-fold dilutions of antibodies starting from 20 nM were added to each well and incubated for 1 hour at 37° C. The plates were washed with PBS/Tween and then incubated with Goat Anti-Human IgG-HRP for 30 mins at 37° C. After washing, the plates were developed with TMB substrate and analyzed by spectrophotometer at OD 450 nm. As shown in FIG. 12 and Table 9, most of the humanized antibodies bound to human 5T4 with high activity.

Row | EC50 | Binder
1 | 0.12 nM | B1
2 | 0.13 nM | B2
3 | 0.11 nM | B3
4 | 0.12 nM | B4
5 | 0.17 nM | B5
6 | 0.095 nM | B6
7 | 0.12 nM | B7
8 | 0.12 nM | B8
9 | 0.052 nM | B9
10 | 0.11 nM | B10
11 | 0.19 nM | B11
12 | 0.11 nM | B12
13 | 0.11 nM | B13
14 | 0.14 nM | B14
15 | 0.22 nM | B15
16 | 0.12 nM | B16
17 | 0.13 nM | B17

Target: T1, human 5T4-His protein
Test: ELISA, coated 5T4-His
Remark: another data set of the same source
Protocol: To evaluate the binding activity of clones, the 286B4 chimeric antibody along with 286B4 humanized mAbs were subjected to ELISA test.
Briefly, microtiter plates were coated with human 5T4-His protein at 1 μg/ml in PBS, 100 μl/well at 4° C. overnight, then blocked with 150 μl/well of 1% BSA. 4-fold dilutions of tested antibodies starting from 20 nM were added to each well and incubated for 1 hour at 37° C. The plates were washed with PBS/Tween and then incubated with Goat Anti-Human IgG-HRP for 30 mins at 37° C. After washing, the plates were developed with TMB substrate and analyzed by spectrophotometer at OD 450 nm. As shown in FIG. 16 and Table 15, most of the humanized clones bound to human 5T4 with high potency.

Row | EC50 | Binder
18 | 3.81 nM | B18
19 | 2.64 nM | B19
20 | 0.33 nM | B20
21 | 1.35 nM | B21
22 | 0.42 nM | B22
23 | 0.3 nM | B23
24 | 4.03 nM | B24
25 | 0.46 nM | B25
26 | 0.89 nM | B26
27 | 1.76 nM | B27
28 | 0.27 nM | B28
29 | 1.42 nM | B29
30 | 0.71 nM | B30

What follows are binders tested against T1, human 5T4-His protein (assay: SPR Biacore, Protein A capture).
Protocol: The binding of the 393E9 humanized antibodies to recombinant 5T4 protein (human 5T4-his tag) was tested with Biacore using a capture method. The mAbs were captured using Protein A chip. A serial dilution of human 5T4-his tag protein was injected over captured antibody for 3 mins at a flow rate of 30 μl/min. The antigen was allowed to dissociate for 280-800 s. All the experiments were carried out on a Biacore T200. Data analysis was carried out using the Biacore T200 evaluation software.

Row | Kd | koff | kon | Binder
31 | 0.594 nM | 0.00012 s⁻¹ | 201000 M⁻¹ s⁻¹ | B1
32 | 0.599 nM | 0.000119 s⁻¹ | 199000 M⁻¹ s⁻¹ | B2
33 | 0.56 nM | 0.000122 s⁻¹ | 217000 M⁻¹ s⁻¹ | B3
34 | 0.502 nM | 0.00012 s⁻¹ | 238000 M⁻¹ s⁻¹ | B4
35 | 0.679 nM | 0.000125 s⁻¹ | 184000 M⁻¹ s⁻¹ | B5
36 | 0.573 nM | 0.000123 s⁻¹ | 215000 M⁻¹ s⁻¹ | B6
37 | 0.7 nM | 0.000119 s⁻¹ | 170000 M⁻¹ s⁻¹ | B7
38 | 0.603 nM | 0.000123 s⁻¹ | 204000 M⁻¹ s⁻¹ | B8
39 | 0.691 nM | 0.000124 s⁻¹ | 179000 M⁻¹ s⁻¹ | B9
40 | 0.687 nM | 0.000137 s⁻¹ | 199000 M⁻¹ s⁻¹ | B10
41 | 0.574 nM | 0.000122 s⁻¹ | 212000 M⁻¹ s⁻¹ | B11
42 | 0.598 nM | 0.000121 s⁻¹ | 202000 M⁻¹ s⁻¹ | B12
43 | 0.684 nM | 0.00012 s⁻¹ | 174000 M⁻¹ s⁻¹ | B13
44 | 0.574 nM | 0.000111 s⁻¹ | 193000 M⁻¹ s⁻¹ | B14
45 | 0.595 nM | 0.000129 s⁻¹ | 217000 M⁻¹ s⁻¹ | B15
46 | 0.65 nM | 0.000127 s⁻¹ | 195000 M⁻¹ s⁻¹ | B16
47 | 0.706 nM | 0.000128 s⁻¹ | 181000 M⁻¹ s⁻¹ | B17

— patent US20250154277A1 (CONCEPT TO MEDICINE BIOTECH, published 2025)
